Data from article PMC8615271, “Functional Interplay between P5 and PDI/ERp72 to Drive Protein Folding” (Biology, 2021).
Numbering of substitutions follows the chain as printed.

T1: IRE1α LD (human, UniProt O75460 24-446)
T1 construct: human IRE1 (IRE1α LD), Ser24-Thr446, cloned into pGEX6p-1; It prints 'C-terminal GST', although pGEX6p-1 usually adds GST at the N-terminus; both tags were removed in any case; also called ER stress sensor IRE1; source: E. coli BL21 (DE3), purified (Glutathione Sepharose 4B, PreScission digestion, Ni-NTA, RESOURCE Q, Superdex 200); not shown: GST, C-terminal, cleaved
T1 sequence (looked up): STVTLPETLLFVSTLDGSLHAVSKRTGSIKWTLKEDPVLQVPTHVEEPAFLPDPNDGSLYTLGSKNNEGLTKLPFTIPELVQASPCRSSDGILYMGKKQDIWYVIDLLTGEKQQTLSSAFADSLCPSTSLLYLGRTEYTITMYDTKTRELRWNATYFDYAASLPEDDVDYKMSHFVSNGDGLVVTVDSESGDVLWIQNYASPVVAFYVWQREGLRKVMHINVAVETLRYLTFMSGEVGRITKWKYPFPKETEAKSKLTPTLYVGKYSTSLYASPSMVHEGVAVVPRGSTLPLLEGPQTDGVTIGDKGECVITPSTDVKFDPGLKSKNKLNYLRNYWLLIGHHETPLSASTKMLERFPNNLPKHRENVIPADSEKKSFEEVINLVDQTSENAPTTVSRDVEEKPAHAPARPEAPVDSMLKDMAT

T2: ERp72 (human, UniProt P13667 25-645)
T2 construct: human ERp72, Glu25-Leu645, cloned into pET15b; source: E. coli BL21 (DE3), purified (Ni-NTA, thrombin digestion, RESOURCE Q, Superdex 200)
T2 sequence (looked up): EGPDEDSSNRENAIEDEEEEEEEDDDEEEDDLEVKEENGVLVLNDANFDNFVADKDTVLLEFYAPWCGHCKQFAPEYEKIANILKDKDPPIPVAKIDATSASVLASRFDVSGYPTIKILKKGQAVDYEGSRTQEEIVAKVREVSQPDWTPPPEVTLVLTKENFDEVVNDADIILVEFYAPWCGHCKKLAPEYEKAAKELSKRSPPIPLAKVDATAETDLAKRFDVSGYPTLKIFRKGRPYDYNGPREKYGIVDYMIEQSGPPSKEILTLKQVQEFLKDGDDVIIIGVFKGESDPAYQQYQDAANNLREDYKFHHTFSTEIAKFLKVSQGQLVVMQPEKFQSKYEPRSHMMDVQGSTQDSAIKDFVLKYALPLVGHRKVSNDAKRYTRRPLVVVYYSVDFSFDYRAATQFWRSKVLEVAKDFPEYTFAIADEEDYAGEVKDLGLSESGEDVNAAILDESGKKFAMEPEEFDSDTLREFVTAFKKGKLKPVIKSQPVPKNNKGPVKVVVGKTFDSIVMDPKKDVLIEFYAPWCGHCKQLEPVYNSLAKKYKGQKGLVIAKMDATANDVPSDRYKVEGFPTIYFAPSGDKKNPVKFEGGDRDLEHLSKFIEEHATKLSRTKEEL

B1: P5 (reduced form) (enzyme, human, UniProt Q15084 20-440, looked up)
chain: LYSSSDDVIELTPSNFNREVIQSDSLWLVEFYAPWCGHCQRLTPEWKKAATALKDVVKVGAVDADKHHSLGGQYGVQGFPTIKIFGSNKNRPEDYQGGRTGEAIVDAALSALRQLVKDRLGGRSGGYSSGKQGRSDSSSKKDVIELTDDSFDKNVLDSEDVWMVEFYAPWCGHCKNLEPEWAAAASEVKEQTKGKVKLAAVDATVNQVLASRYGIRGFPTIKIFQKGESPVDYDGGRTRSDIVSRALDLFSDNAPPPELLEIINEDIAKRTCEEHQLCVVAVLPHILDTGAAGRNSYLEVLLKLADKYKKKMWGWLWTEAGAQSELETALGIGGFGYPAMAAINARKMKFALLKGSFSEQGINEFLRELSFGRGSTAPVGGGAFPTIVEREPWDGRDGELPVEDDIDLSDVELDDLGKDEL
notes: human P5 (PDIA6), Lys20-Leu440, cloned into pET15b; Used reduced (10 mM dithiothreitol treatment during purification); this was not measured here; also called ERp5; PDIA6; source: E. coli BL21 (DE3), purified (Ni-NTA, thrombin digestion, RESOURCE Q, Superdex 200)
B2: Catalytically-inactive P5 (Cys55/58/190/193Ala) mutant (enzyme, human, UniProt Q15084 20-440, looked up)
chain: B1 chain with C36A, C39A, C171A, C174A
notes: human P5 (PDIA6), Lys20-Leu440, with the four active-site cysteines changed to alanine; The limits are those stated for the human P5 gene in pET15b; also called mutated P5; source: E. coli BL21 (DE3), purified (Ni-NTA, thrombin digestion, RESOURCE Q, Superdex 200)
B3: ERp46 (enzyme)
chain: not shown
notes: human ERp46, Arg33-Leu432, cloned into pET15b; source: E. coli BL21 (DE3), purified (Ni-NTA, thrombin digestion, RESOURCE Q, Superdex 200)

Key:
Details in all cases: both partners purified
PDI [1] = molecular target: T3, PDI (human, UniProt P07237 18-508); assay: far-Western, overlay or dot blot; reduced purified prey proteins (from 40 µM stocks, 3 µL) dotted on nitrocellulose; blocked with 5% skim milk in TBST; incubated with 0.2 µM reduced P5 in 20 mM Tris-HCl pH 7.6, 150 mM NaCl, 0.05% Tween 20 at 4 °C for 3 h; bound P5 detected with anti-P5 antiserum
T3 construct: human PDI (P4HB), Asp18-Leu508, cloned into pET15b; also called protein disulfide isomerase; P4HB; source: E. coli BL21 (DE3), purified (Ni-NTA, thrombin digestion, RESOURCE Q, Superdex 200)
T3 sequence (P07237 18-508): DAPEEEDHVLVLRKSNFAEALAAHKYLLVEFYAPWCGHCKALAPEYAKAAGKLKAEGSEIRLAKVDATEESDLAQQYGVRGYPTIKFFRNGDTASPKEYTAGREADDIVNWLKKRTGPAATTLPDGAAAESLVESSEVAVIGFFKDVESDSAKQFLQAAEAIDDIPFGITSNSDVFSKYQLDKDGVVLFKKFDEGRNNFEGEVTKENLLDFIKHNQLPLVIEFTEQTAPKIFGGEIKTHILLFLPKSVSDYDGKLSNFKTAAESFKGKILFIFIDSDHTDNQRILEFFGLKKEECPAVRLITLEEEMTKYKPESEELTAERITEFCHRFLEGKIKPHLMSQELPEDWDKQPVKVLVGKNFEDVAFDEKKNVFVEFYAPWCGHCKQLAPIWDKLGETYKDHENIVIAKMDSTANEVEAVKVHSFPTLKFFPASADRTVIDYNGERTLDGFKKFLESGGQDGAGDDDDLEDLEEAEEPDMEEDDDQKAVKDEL

IRE1α LD = molecular target: T1, IRE1α LD; assay: as above
ERp72 [2] = molecular target: T2, ERp72; assay: as above
PDI [3] = molecular target: T3, PDI; assay: ITC; 280 µM P5 Cys55/58/190/193Ala mutant in the syringe (50 mM HEPES pH 7.2, 150 mM NaCl) titrated into 40 µM PDI or ERp72 in the cell (50 mM HEPES pH 7.2); 30 °C; one set of sites model
ERp72 [4] = molecular target: T2, ERp72; assay: as above
P5 (reduced form) = molecular target: B1; assay: far-Western, overlay or dot blot; reduced purified prey proteins (from 40 µM stocks, 3 µL) dotted on nitrocellulose; blocked with 5% skim milk in TBST; incubated with 0.2 µM reduced P5 in 20 mM Tris-HCl pH 7.6, 150 mM NaCl, 0.05% Tween 20 at 4 °C for 3 h; bound P5 detected with anti-P5 antiserum

Binder: B1
binding result (PDI [1]): binds | binding result (IRE1α LD): binds | binding result (ERp72 [2]): binds

Binder: B2
dH (PDI [3]): -4.4 ± 0.2 kcal/mol | stoichiometry N (PDI [3]): 0.1 | dH (ERp72 [4]): -10.7 ± 0.8 kcal/mol | stoichiometry N (ERp72 [4]): 0.1

Binder: B3
binding result (P5 (reduced form)): binds
